Data: patent publication US20210102195A1 (TWIST BIOSCIENCE, published 2021)
Each block holds one binder with its values, some of them ahead of it.

What was measured:
human CD3 epsilon = target: T1, human CD3 epsilon (human, UniProt P07766 23-126, limits assumed); experiment: affinity of IgG; method not stated; human CD3 epsilon
T1 construct: also called hCD3; hCD3 epsilon

CRTH2R [1] = target: T2, CRTH2R (UniProt Q9Y5Y4 1-395, limits assumed); experiment: cell-based or functional assay
T2 sequence (looked up): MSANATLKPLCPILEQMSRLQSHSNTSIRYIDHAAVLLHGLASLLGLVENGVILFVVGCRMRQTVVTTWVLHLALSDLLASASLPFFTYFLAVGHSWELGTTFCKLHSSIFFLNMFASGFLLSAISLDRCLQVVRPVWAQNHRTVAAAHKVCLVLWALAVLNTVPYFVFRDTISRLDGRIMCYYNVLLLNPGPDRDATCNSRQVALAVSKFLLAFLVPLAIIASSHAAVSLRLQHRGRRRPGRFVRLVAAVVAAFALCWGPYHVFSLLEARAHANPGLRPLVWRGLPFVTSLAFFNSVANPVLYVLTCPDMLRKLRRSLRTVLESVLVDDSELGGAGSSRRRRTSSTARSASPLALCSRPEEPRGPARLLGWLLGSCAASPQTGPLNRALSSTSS

CRTH2R [2] = target: T2, CRTH2R; experiment: flow cytometry (MFI), CHO CRTH2R-positive cells against parental CHO cells; same panel as in FIG. 15C; grey = CRTH2R cells, black = parental cells (no legend on the panel)
Procedure: (§1) Cell binding of anti-CRTH2R antibodies was determined by testing on CHO CRTH2R-positive cells (GFP+) and parental CHO cells (GFP−), comparing parental negative and target positive cells to rule out false-positives. Antibodies as listed in Table 14A were titrated starting at 100 nM (15 ug/mL) with 3-fold titrations, for a total of 8 points. Two antibodies (gPCR-51 and gPCR-52) were used as a positive control.

CRTH2R [3] = target: T2, CRTH2R; experiment: flow cytometry (MFI), CHO CRTH2R-positive cells against parental CHO cells, 3-fold titration from 100 nM; grey = CRTH2R cells, black = parental cells (no legend on the panel)
Procedure: as §1

T1 sequence (P07766 23-126 limits assumed): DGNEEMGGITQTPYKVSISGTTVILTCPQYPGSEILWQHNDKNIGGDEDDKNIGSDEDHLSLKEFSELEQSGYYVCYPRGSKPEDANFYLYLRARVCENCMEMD

Kd (human CD3 epsilon): 67 nM
B1: CD3-56-05 (antibody, V domains shown)
VH: EVQLLESGGGLVQPGGSLRLSCAASGFTFSSYAMNWVRQAPGKGLEWVSAVSGSGGRTYYADSVKGRFTISRDNSKNTLYLQMNSLRAEDTAVYYCARERATTLDYWGQGTLVTVSS
VL: DIQMTQSPSSLSASVGDRVTITCRASQTIYSHLNWYQQKPGKAPKLLIYVASRLQSGVPSRFSGSGSGTDFTLTISSLQPEDFATYYCQQSFSTSWTFGGGTKVEIK
notes: IgG; also called CD3-56-5

IC50 fold difference of the PGD2 dose response (cAMP) with 100 nM IgG (CRTH2R [1]): > 2 fold
EC50 (CRTH2R [2]): 12.4 nM
EC50 (CRTH2R [3]): 12.4 nM
B2: CRTH2-32 (antibody, V domains shown)
VH: QVQLVESGGGVVQPGRSLRLSCAASGFTFSKHGMHWVRQAPGKGLEWVAFISYEGSEKYYADSVKGRFTISRDNSKNTLYLQMNSLRAEDTAVYYCARDMYYDFHYSTVGATYYYYLGSETEVVPADDAFDIWGQGTLVTVSS
VL: QSALTQPASVSGSPGQSITISCTGTSSGVGGYDYVSWYQQHPGKAPKLMIYDDNNRPSGVSNRFSGSKSGNTASLTISGLQAEDEADYYCSSYTGSSTLYVFGGGTKLTVL
notes: CRTH2R IgG
